We go through 24 sequences from the supplement of paper PMC9428881.

The data set is described as follows: background-corrected fluorescence of 3'-dye-labeled ssDNA relative to brightest sequence (3'-GCGCG) (fraction); higher = brighter dye fluorescence (less quenching). The method, then: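 Single-stranded DNA is synthesized in situ on glass microarrays by 5'->3' photolithographic synthesis, with a Cy3 or Cy5 phosphoramidite coupled at the 3' end next to all 1024 permuted pentamers P1-P5. The construct is 5'-T5-(ACGT minus P5..P1 trinucleotides)-T15-P5P4P3P2P1-dye-3'; the dye is a 3' terminal modification, not part of the sequence. Arrays were scanned at 532 nm (Cy3) or 635 nm (Cy5), background from unlabeled oligos was subtracted, and values are averaged over 10 replicate features per array and at least 3 independent syntheses.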

± gives the standard error.

“TTTTTGCAGCAGCAGCAGCATTTTTTTTTTTTTTTTTTTT”: the background-corrected fluorescence reads like this: (dye: Cy3 (3' terminal)) 0.489 ± 0.032; (dye: Cy5 (3' terminal)) 0.34 ± 0.015.
On the same counts, the results for “TTTTTGCAGCAGCAGCATCATTTTTTTTTTTTTTTTTTTG [GTTTT]” are 0.461 ± 0.0051 and 0.334 ± 0.032.
On the same counts, the results for “TTTTTGCAGCAGCAGCATGATTTTTTTTTTTTTTTTTTTC [CTTTT]” are 0.373 ± 0.032 and 0.257 ± 0.015.
The matching figures for “TTTTTGCAGCAGCAGCATGCTTTTTTTTTTTTTTTTTTTA [ATTTT]”: 0.501 ± 0.033 and 0.411 ± 0.028.
“TTTTTGCAGCAGCATCAGCATTTTTTTTTTTTTTTTTTGT [TGTTT]”: the background-corrected fluorescence runs as follows: (dye: Cy3 (3' terminal)) 0.649 ± 0.02; (dye: Cy5 (3' terminal)) 0.46 ± 0.028.
On the same counts, the results for “TTTTTGCAGCAGCATCATCATTTTTTTTTTTTTTTTTTGG [GGTTT]” are 0.612 ± 0.01 and 0.444 ± 0.027.
The matching figures for “TTTTTGCAGCAGCATCATGATTTTTTTTTTTTTTTTTTGC [CGTTT]”: 0.495 ± 0.024 and 0.341 ± 0.032.
“TTTTTGCAGCAGCATCATGCTTTTTTTTTTTTTTTTTTGA [AGTTT]”: the background-corrected fluorescence was 0.634 ± 0.029 (dye: Cy3 (3' terminal)) and 0.524 ± 0.03 (dye: Cy5 (3' terminal)).
On the same counts, the results for “TTTTTGCAGCAGCATGAGCATTTTTTTTTTTTTTTTTTCT [TCTTT]” are 0.463 ± 0.024 and 0.321 ± 0.019.
The matching figures for “TTTTTGCAGCAGCATGATCATTTTTTTTTTTTTTTTTTCG [GCTTT]”: 0.468 ± 0.011 and 0.327 ± 0.027.
In turn, “TTTTTGCAGCAGCATGATGATTTTTTTTTTTTTTTTTTCC [CCTTT]” yielded a background-corrected fluorescence (dye: Cy3 (3' terminal)) of 0.363 ± 0.017 and a background-corrected fluorescence (dye: Cy5 (3' terminal)) of 0.253 ± 0.015.
With “TTTTTGCAGCAGCATGATGCTTTTTTTTTTTTTTTTTTCA [ACTTT]”, the background-corrected fluorescence (dye: Cy3 (3' terminal)) worked out at 0.482 ± 0.032 and the background-corrected fluorescence (dye: Cy5 (3' terminal)) was 0.373 ± 0.046.
On to “TTTTTGCAGCAGCATGCGCATTTTTTTTTTTTTTTTTTAT [TATTT]”, for which the background-corrected fluorescence was 0.503 ± 0.033 (dye: Cy3 (3' terminal)) and 0.364 ± 0.017 (dye: Cy5 (3' terminal)).
On to “TTTTTGCAGCAGCATGCTCATTTTTTTTTTTTTTTTTTAG [GATTT]”, for which the background-corrected fluorescence is, setting by setting: (dye: Cy3 (3' terminal)) 0.511 ± 0.015; (dye: Cy5 (3' terminal)) 0.394 ± 0.048.
The matching figures for “TTTTTGCAGCAGCATGCTGATTTTTTTTTTTTTTTTTTAC [CATTT]”: 0.391 ± 0.039 and 0.292 ± 0.021.
The matching figures for “TTTTTGCAGCAGCATGCTGCTTTTTTTTTTTTTTTTTTAA [AATTT]”: 0.569 ± 0.036 and 0.439 ± 0.024.
“TTTTTGCAGCATCAGCAGCATTTTTTTTTTTTTTTTTGTT”: the background-corrected fluorescence is 0.554 ± 0.018 (dye: Cy3 (3' terminal)) and 0.405 ± 0.024 (dye: Cy5 (3' terminal)).
Regarding “TTTTTGCAGCATCAGCATCATTTTTTTTTTTTTTTTTGTG [GTGTT]”, the background-corrected fluorescence is, setting by setting: (dye: Cy3 (3' terminal)) 0.524 ± 0.031; (dye: Cy5 (3' terminal)) 0.397 ± 0.019.
Take “TTTTTGCAGCATCAGCATGATTTTTTTTTTTTTTTTTGTC [CTGTT]”: the background-corrected fluorescence was found to be 0.407 ± 0.013 (dye: Cy3 (3' terminal)) and 0.345 ± 0.024 (dye: Cy5 (3' terminal)).
On the same counts, the results for “TTTTTGCAGCATCAGCATGCTTTTTTTTTTTTTTTTTGTA [ATGTT]” are 0.576 ± 0.02 and 0.487 ± 0.053.
For “TTTTTGCAGCATCATCAGCATTTTTTTTTTTTTTTTTGGT [TGGTT]”, the background-corrected fluorescence amounted to 0.689 ± 0.017 (dye: Cy3 (3' terminal)) and 0.593 ± 0.047 (dye: Cy5 (3' terminal)).
On the same counts, the results for “TTTTTGCAGCATCATCATCATTTTTTTTTTTTTTTTTGGG [GGGTT]” are 0.661 ± 0.029 and 0.549 ± 0.029.
“TTTTTGCAGCATCATCATGATTTTTTTTTTTTTTTTTGGC [CGGTT]”: the background-corrected fluorescence amounted to 0.556 ± 0.017 (dye: Cy3 (3' terminal)) and 0.457 ± 0.023 (dye: Cy5 (3' terminal)).
The matching figures for “TTTTTGCAGCATCATCATGCTTTTTTTTTTTTTTTTTGGA [AGGTT]”: 0.689 ± 0.02 and 0.638 ± 0.054.
